Measured values taken from paper PMC2891831, “Insight into the Mechanisms of Adenovirus Capsid Disassembly from Studies of Defensin Neutralization” (PLoS Pathogens, 2010).

What was measured:
[1] = tested on: HAdV-D serotypes; test: Infection assay (hexon staining), HAdV species D; format: cell-based, human adenovirus; settings: 15 µM HD5, A549 cells, hexon staining at ~48 h, vs. no defensin; upper limit 200%
Description: To determine whether sensitivity to α-defensins is a general property of HAdVs, serotypes representative of HAdV species A–F were tested for infectivity in the presence of 15 µM HD5 or HNP1 (Figure 1). Wild type HAdVs rather than vectors were used for these studies, and infectivity was assessed by staining for hexon production. […] These studies indicate that sensitivity to α-defensins is species specific. In addition, particular HAdV serotypes are not equally sensitive to all defensins, indicating defensin sequence specificity as well.
Figure 1 Sensitivity to neutralization by alpha-defensins is AdV species specific. HAdVs were incubated with 15 µM HD5 (A) or HNP1 (B) and assessed for infectivity on A549 cells. Data are the mean of the percent infectivity compared to control cells infected with each virus in the absence of defensin for at least three independent experiments ± SD. The upper limit for quantification of this assay is 200%. […]
(§1) Prior to use in this assay, each virus stock was titrated on A549 cells. […] In parallel, wells were infected with two-fold serial dilutions of each virus to establish a standard curve for quantification with an upper limit of 200%. […] Total well fluorescence above background was quantified with ImageJ software. For each virus, samples were quantified by nonlinear regression against the standard curve using Prism software (GraphPad Software, Inc., La Jolla, CA).

[2] = tested on: Ad5.eGFP; test: Ad5.eGFP infection, eGFP-positive cells by flow cytometry; format: cell-based, human adenovirus; settings: 15 µM defensin, percent eGFP positive cells vs. no defensin, at least three independent experiments
Source text: To gain further insight into the defensin-HAdV interaction, we assessed the requirement for two conserved structural elements on the anti-AdV activity of HD5. All defensins have three disulfide bonds (Figure 3A). […] The antibacterial properties of defensins, which are dependent upon protein-lipid interactions, are not uniformly conformation dependent [27]–[29]. […] In contrast, defensin-related chemokine activity, which relies on protein-protein interactions, is dependent on defensin conformation. We hypothesized that the defensin-capsid interaction for sensitive serotypes would likely be dependent upon defensin conformation, as this would be more typical for protein-protein interactions. […]
Figure 3 HD5 antiviral activity is structure dependent. […] C) Binding of Alexa Fluor 488-labeled HAdV-5 to cells was assessed after incubation with or without 20 µM HD5 or HD5-Abu and in competition with 100 nM 5FK or 16 FK. Data are the mean fold increase in geometric mean fluorescence compared to cells alone and are of at least 10,000 cells from each of three independent experiments ± SD.
To test the activity of HD5 derivates, Ad5.eGFP was incubated with 15 µM of HD5, HD5-Abu, or HD5-E14Q. Infectivity was assessed by enumerating eGFP-positive cells by flow cytometry as described.

[3] = tested on: GYAR virus; test: Infection assay, GYAR virus; format: cell-based, human adenovirus; settings: 5 µM HD5, A549 cells, at least three independent experiments
Description: Figure 6 Neutralization determinants are located in fiber and penton base. A) Schematic of chimeric viruses. Capsid proteins are depicted in the order in which they are encoded in the virus genome for HAdV-5 (white) and HAdV-19c (grey). The variable residues in fiber (GYAR and DTET) are indicated for each construct. B) Each of the chimeric viruses was incubated with 5 µM (grey) or 10 µM (black) HD5 and assessed for infectivity on A549 cells. Data are the mean of the percent infectivity compared to control cells infected with each virus in the absence of defensin for at least three independent experiments ± SD. The upper limit for quantification of this assay is 200%.
We then combined the GYAR substitution with the PB substitution in a single construct (PB/GYAR).
as §1, with “cells. A virus concentration was chosen to produce 50–70% maximal signal in the absence of defensin as described below.” for “cells.”

[4] = tested on: HAdV-5; settings: ref [13], cited from earlier work

B1: HD5: human alpha-defensin; synthetic, obtained from Peptides International; three disulfide bonds (PDB 1ZMP) (peptide, UniProt Q01523 20-94, looked up)
Defensin alpha 5: ESLQERADEATTQKQSGEDNQDLAISFAGNGLSALRTSGSQARATCYCRTGRCATRESLSGVCEISGRLYRLCCR
modifications: Defensin-5
sensitivity to neutralization (infectivity) [1]: completely resistant to HD5-mediated neutralization and, in most cases, infection is actually enhanced
antiviral activity against Ad5.eGFP [2]: only correctly folded HD5 has antiviral activity
sensitivity to HD5 neutralization compared to HAdV-5 [3]: less sensitive
inhibition of HAdV-5 infection ([4]; low micromolar concentrations): significantly inhibit HAdV-5 infection at low micromolar concentrations
productive infection by HAdV-5 [4]: almost complete block to productive infection
IC50 ([4]; read-out: IC50 for HAdV-5 infection): 3 to 4 µM
